# Measured values published in PMC5586342, “Mouse glutamate carboxypeptidase II (GCPII) has a similar enzyme activity and inhibition profile but a different tissue distribution to human GCPII” (FEBS Open Bio, 2017).
# Like-named read-outs stand apart in the source and are kept apart here.
# B1: Avi-mGCPII (recombinant extracellular mouse GCPII) (Mus musculus) (protein)
# chain: KPSNEATGNVSHSGMKKEFLHELKAENIKKFLYNFTRTPHLAGTQNNFELAKQIHDQWKEFGLDLVELSHYDVLLSYPNKTHPNYISIINEDGNEIFKTSLSEQPPPGYENISDVVPPYSAFSPQGTPEGDLVYVNYARTEDFFKLEREMKISCSGKIVIARYGKVFRGNMVKNAQLAGAKGMILYSDPADYFVPAVKSYPDGWNLPGGGVQRGNVLNLNGAGDPLTPGYPANEHAYRHELTNAVGLPSIPVHPIGYDDAQKLLEHMGGPAPPDSSWKGGLKVPYNVGPGFAGNFSTQKVKMHIHSYTKVTRIYNVIGTLKGALEPDRYVILGGHRDAWVFGGIDPQSGAAVVHEIVRSFGTLKKKGRRPRRTILFASWDAEEFGLLGSTEWAEEHSRLLQERGVAYINADSSIEGNYTLRVDCTPLMYSLVYNLTKELQSPDEGFEGKSLYDSWKEKSPSPEFIGMPRISKLGSGNDFEVFFQRLGIASGRARYTKNWKTNKVSSYPLYHSVYETYELVVKFYDPTFKYHLTVAQVRGAMVFELANSIVLPFDCQSYAVALKKYADTIYNISMKHPQEMKAYMISFDSLFSAVNNFTDVASKFNQRLQELDKSNPILLRIMNDQLMYLERAFIDPLGLPGRPFYRHIIYAPSSHNKYAGESFPGIYDALFDISSKVNASKAWNEVKRQISIATFTVQAAAETLREVA
# notes: extracellular domain (45-752), N-terminal biotinylated Avi-tag with TEV site, secreted from Drosophila S2 cells, streptavidin mutein purification
# Assays:
# [1] = target: T1, Avi-mGCPII (recombinant extracellular mouse GCPII) (Mus musculus, UniProt O35409); experiment: HPLC assay of pteroyl-di-L-glutamate cleavage; type: biochemical; conditions: for Ki: read-out: K i (Avi-mGCPII)
# T1 construct: gene Folh1; extracellular domain (45-752), N-terminal biotinylated Avi-tag with TEV site, secreted from Drosophila S2 cells, streptavidin mutein purification
# Description: HPLC assay of pteroyl-di-L-glutamate cleavage on Avi-mGCPII (recombinant extracellular mouse GCPII)
# [2] = target: T2, Avi-hGCPII (recombinant extracellular human GCPII) (Homo sapiens, UniProt Q04609); experiment: HPLC assay of pteroyl-di-L-glutamate cleavage; type: biochemical; conditions: for Ki: read-out: K i (Avi-hGCPII)
# T2 construct: gene FOLH1
# T2 sequence (Q04609 44-750 limits assumed): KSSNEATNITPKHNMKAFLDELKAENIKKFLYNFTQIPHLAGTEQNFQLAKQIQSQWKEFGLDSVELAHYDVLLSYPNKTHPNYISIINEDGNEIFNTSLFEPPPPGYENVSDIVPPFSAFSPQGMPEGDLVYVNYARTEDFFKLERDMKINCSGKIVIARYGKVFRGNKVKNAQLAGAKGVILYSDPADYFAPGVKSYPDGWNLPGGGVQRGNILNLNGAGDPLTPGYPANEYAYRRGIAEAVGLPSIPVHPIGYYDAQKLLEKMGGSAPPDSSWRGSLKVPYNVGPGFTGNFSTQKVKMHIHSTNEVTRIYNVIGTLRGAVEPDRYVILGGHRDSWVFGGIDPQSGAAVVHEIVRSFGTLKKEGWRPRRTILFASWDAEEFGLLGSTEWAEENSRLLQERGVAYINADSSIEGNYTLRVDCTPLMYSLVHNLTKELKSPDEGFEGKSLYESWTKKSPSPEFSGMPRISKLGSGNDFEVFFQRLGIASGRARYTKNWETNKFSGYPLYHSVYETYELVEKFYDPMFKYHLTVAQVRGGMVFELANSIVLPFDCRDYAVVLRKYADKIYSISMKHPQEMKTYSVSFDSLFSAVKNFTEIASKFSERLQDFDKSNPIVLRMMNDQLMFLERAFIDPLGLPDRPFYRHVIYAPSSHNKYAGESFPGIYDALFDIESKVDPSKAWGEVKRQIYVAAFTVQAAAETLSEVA
# Description: HPLC assay of pteroyl-di-L-glutamate cleavage on Avi-hGCPII (recombinant extracellular human GCPII)
# [3] = tested on: CC(=O)N[C@@H](CC(=O)O)C(=O)N[C@@H](CCC(=O)O)C(=O)O; experiment: radioenzymatic assay; type: biochemical, Homo sapiens; conditions: […] Bis-Tris propane, […] NaCl, pH […]
# Description: radioenzymatic assay on Avi-hGCPII (recombinant extracellular human GCPII)
# [4] = substrate: CC(=O)N[C@@H](CC(=O)O)C(=O)N[C@@H](CCC(=O)O)C(=O)O; experiment: radioenzymatic assay; type: biochemical, Mus musculus; conditions: […] Bis-Tris propane, […] NaCl, pH […]
# Description: radioenzymatic assay on Avi-mGCPII (recombinant extracellular mouse GCPII)
# [5] = substrate: Nc1nc2ncc(CNc3ccc(C(=O)N[C@@H](CCC(=O)N[C@@H](CCC(=O)O)C(=O)O)C(=O)O)cc3)nc2c(=O)[nH]1; experiment: HPLC assay; type: biochemical, Mus musculus; conditions: […] Bis-Tris propane, […] NaCl, pH […]
# Description: HPLC assay on Avi-mGCPII (recombinant extracellular mouse GCPII)
# [6] = substrate pteroyl-di-L-glutamate ([…] final), […] Bis-Tris propane, […] NaCl, pH […] °C
molecule,measurement,setting,value
"O=C(O)CCC(CP(=O)(O)O)C(=O)O (centres unmarked) [2-PMPA, 2‐(phosphonomethyl)pentanedioic acid]",Ki,[1]; [6],0.56 ± 0.05 nM
O=C(O)CCc1ccc(O)c(CN(CCN(CC(=O)O)Cc2cc(CCC(=O)NCCCCCC(=O)NCCCC[C@H](NC(=O)N[C@@H](CCC(=O)O)C(=O)O)C(=O)O)ccc2O)CC(=O)O)c1 [DKFZ-PSMA-11],Ki,[1],0.1 ± 0.01 nM
same,Ki,[2]; [6],0.018 ± 0.002 nM
N[C@@H](Cn1oc(=O)[nH]c1=O)C(=O)O [Quisqualate],Ki,[1],580 ± 60 nM
same,Ki,[2],520 ± 80 nM
"CC(C)C[C@H](NC(=O)N[C@@H](CCC(=O)O)C(=O)O)C(=O)O [ZJ-43, (S)‐2‐(3‐((S)‐1‐carboxy‐3‐methylbutyl)ureido)pentanedioic acid]",Ki,[1],5.9 ± 0.9 nM
O=C(O)CC[C@H](NC(=O)C(O)(CC(=O)O)CC(=O)O)C(=O)O [β-citryl-L-glutamate],K i (Avi-mGCPII) (nM),[1]; [6],24 000 ± 3000 nM
same,K i (Avi-hGCPII) (nM),[2]; [6],16 000 ± 5000 nM
Avi-hGCPII (recombinant extracellular human GCPII) (Homo sapiens),Km,[3],0.55 ± 0.06 µM
same,kcat,[3],1.45 ± 0.04 s⁻¹
same,kcat/Km,[3],2.65e+06 ± 70000 M⁻¹ s⁻¹
B1,Km,[4],1.9 ± 0.1 µM
same,kcat,[4],1.44 ± 0.02 s⁻¹
same,kcat/Km,[4],770000 ± 10000 M⁻¹ s⁻¹
same,Km,[5],0.29 ± 0.02 µM
same,kcat,[5],3.63 ± 0.09 s⁻¹
same,kcat/Km,[5],1.26e+07 ± 800000 M⁻¹ s⁻¹
